Data taken from the supplement of paper PMC9112550, “Optimization of the antimicrobial peptide Bac7 by deep mutational scanning” (BMC Biology, 2022).

system: Escherichia coli TOP10; test: shrunken log2 fold change of peptide-encoding DNA abundance (4.5 h post-induction vs induction); higher = less antimicrobial activity (less host growth inhibition); details: time post-induction: 4.5 h; library: site-saturation at positions 5, 18, 19, 20
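Note: peptides expressed intracellularly from a pBAD plasmid library in pooled LB shake-flask culture, induced with 0.3% L-arabinose, DNA abundance read by NGS, three biological replicates, DESeq2 with apeglm shrinkage.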

Sequence	shrunken log2 fold change
RRIRKRPPRLPRPRPRPEQQPRP	1.43
RRIRERPPRLPRPRPRPHFEPRP	-0.211
RRIRFRPPRLPRPRPRPVGLPRP	0.0115
RRIRSRPPRLPRPRPRPLAQPRP	0.261
RRIRSRPPRLPRPRPRPSYQPRP	-0.434
RRIRCRPPRLPRPRPRPRAYPRP	-0.35
RRIRSRPPRLPRPRPRPPFCPRP	0.135
RRIRERPPRLPRPRPRPAQFPRP	0.383
RRIRFRPPRLPRPRPRPRHDPRP	0.0736
RRIRLRPPRLPRPRPRPTKIPRP	0.0747
RRIRWRPPRLPRPRPRPETNPRP	0.187
RRIRIRPPRLPRPRPRPHNNPRP	-0.313
RRIRQRPPRLPRPRPRPQECPRP	-0.00962
RRIRIRPPRLPRPRPRPFFAPRP	0.073
RRIRFRPPRLPRPRPRPYHHPRP	-1.16
RRIRFRPPRLPRPRPRPMYYPRP	-0.123
RRIRMRPPRLPRPRPRPFNSPRP	-0.326
RRIRWRPPRLPRPRPRPRRWPRP	0.482
RRIRRRPPRLPRPRPRPWSFPRP	0.0517
RRIRLRPPRLPRPRPRPNAKPRP	-0.0021
RRIRSRPPRLPRPRPRPHQSPRP	-0.198
RRIRCRPPRLPRPRPRPQWPPRP	0.0205
RRIRKRPPRLPRPRPRPNMRPRP	0.334
RRIRMRPPRLPRPRPRPVRVPRP	1.74
RRIRERPPRLPRPRPRPNMWPRP	-0.647

Sequence	shrunken log2 fold change
RRIRVRPPRLPRPRPRPCCQPRP	-0.19
RRIRHRPPRLPRPRPRPDCGPRP	-0.131
RRIRMRPPRLPRPRPRPITRPRP	0.248
RRIRHRPPRLPRPRPRPLWLPRP	0.0573
RRIRWRPPRLPRPRPRPDTWPRP	0.0829
RRIRFRPPRLPRPRPRPHMGPRP	-0.292
RRIRMRPPRLPRPRPRPHDFPRP	0.143
RRIRQRPPRLPRPRPRPVRTPRP	0.0701
RRIRARPPRLPRPRPRPHVEPRP	0.147
RRIRGRPPRLPRPRPRPEMKPRP	0.73
RRIRYRPPRLPRPRPRPVKQPRP	-0.00131
RRIRCRPPRLPRPRPRPKADPRP	-0.052
RRIRWRPPRLPRPRPRPSWDPRP	0.251
RRIRNRPPRLPRPRPRPAQFPRP	0.0855
RRIRDRPPRLPRPRPRPADCPRP	-0.0601
RRIRWRPPRLPRPRPRPFRDPRP	-0.196
RRIRARPPRLPRPRPRPTTPPRP	0.605
RRIRLRPPRLPRPRPRPNFRPRP	-0.195
RRIRYRPPRLPRPRPRPSSNPRP	-0.634
RRIRPRPPRLPRPRPRPQTMPRP	0.235
RRIRPRPPRLPRPRPRPKYFPRP	-0.693
RRIRDRPPRLPRPRPRPYGSPRP	-0.0409
RRIRTRPPRLPRPRPRPRMDPRP	-0.38
RRIRKRPPRLPRPRPRPASCPRP	0.431
RRIRARPPRLPRPRPRPDNTPRP	-0.214

Sequence	shrunken log2 fold change
RRIRERPPRLPRPRPRPLRWPRP	0.459
RRIRQRPPRLPRPRPRPATYPRP	-0.287
RRIRGRPPRLPRPRPRPGPWPRP	0.484
RRIRNRPPRLPRPRPRPWGWPRP	0.242
RRIRFRPPRLPRPRPRPFCIPRP	-0.518
RRIRLRPPRLPRPRPRPMQFPRP	0.179
RRIRVRPPRLPRPRPRPYFNPRP	-0.729
RRIRKRPPRLPRPRPRPVWNPRP	-0.106
RRIRQRPPRLPRPRPRPQDCPRP	-0.186
RRIRCRPPRLPRPRPRPQPHPRP	0.067
RRIRMRPPRLPRPRPRPYQKPRP	-0.0182
RRIRHRPPRLPRPRPRPDASPRP	0.221
RRIRMRPPRLPRPRPRPRWRPRP	0.732
RRIRGRPPRLPRPRPRPPWCPRP	0.491
RRIRWRPPRLPRPRPRPCMVPRP	-0.155
RRIRMRPPRLPRPRPRPWVCPRP	0.154
RRIRIRPPRLPRPRPRPWKMPRP	-1.13
RRIRSRPPRLPRPRPRPLQSPRP	0.49
RRIRERPPRLPRPRPRPNGYPRP	-0.193
RRIRRRPPRLPRPRPRPVGHPRP	0.0496
RRIRLRPPRLPRPRPRPCITPRP	-0.275
RRIRKRPPRLPRPRPRPIFHPRP	0.381
RRIRDRPPRLPRPRPRPDRKPRP	-0.055
RRIRKRPPRLPRPRPRPWFYPRP	-0.0799
RRIRYRPPRLPRPRPRPSMFPRP	-1.02
